According to patent US20250262210A1 (TRUSTEES OF COLUMBIA UNIVERSITY IN THE CITY OF NEW YORK, published 2025):

Key:
Test in all cases: IP/MS, LZTR1 R810W-FLAG, U87
[1] = target: SKIV2L (human, UniProt Q15477 1-1246)
How it was run: (§1)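 Read-out: spectral counts from LC-MS/MS (Orbitrap Fusion) after MaxQuant identification. Variable modifications were Met oxidation, protein N-terminal acetylation and N/Q deamidation.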

[2] = target: T1, RANBP6 (human, UniProt O60518 2-1105)
T1 sequence (looked up): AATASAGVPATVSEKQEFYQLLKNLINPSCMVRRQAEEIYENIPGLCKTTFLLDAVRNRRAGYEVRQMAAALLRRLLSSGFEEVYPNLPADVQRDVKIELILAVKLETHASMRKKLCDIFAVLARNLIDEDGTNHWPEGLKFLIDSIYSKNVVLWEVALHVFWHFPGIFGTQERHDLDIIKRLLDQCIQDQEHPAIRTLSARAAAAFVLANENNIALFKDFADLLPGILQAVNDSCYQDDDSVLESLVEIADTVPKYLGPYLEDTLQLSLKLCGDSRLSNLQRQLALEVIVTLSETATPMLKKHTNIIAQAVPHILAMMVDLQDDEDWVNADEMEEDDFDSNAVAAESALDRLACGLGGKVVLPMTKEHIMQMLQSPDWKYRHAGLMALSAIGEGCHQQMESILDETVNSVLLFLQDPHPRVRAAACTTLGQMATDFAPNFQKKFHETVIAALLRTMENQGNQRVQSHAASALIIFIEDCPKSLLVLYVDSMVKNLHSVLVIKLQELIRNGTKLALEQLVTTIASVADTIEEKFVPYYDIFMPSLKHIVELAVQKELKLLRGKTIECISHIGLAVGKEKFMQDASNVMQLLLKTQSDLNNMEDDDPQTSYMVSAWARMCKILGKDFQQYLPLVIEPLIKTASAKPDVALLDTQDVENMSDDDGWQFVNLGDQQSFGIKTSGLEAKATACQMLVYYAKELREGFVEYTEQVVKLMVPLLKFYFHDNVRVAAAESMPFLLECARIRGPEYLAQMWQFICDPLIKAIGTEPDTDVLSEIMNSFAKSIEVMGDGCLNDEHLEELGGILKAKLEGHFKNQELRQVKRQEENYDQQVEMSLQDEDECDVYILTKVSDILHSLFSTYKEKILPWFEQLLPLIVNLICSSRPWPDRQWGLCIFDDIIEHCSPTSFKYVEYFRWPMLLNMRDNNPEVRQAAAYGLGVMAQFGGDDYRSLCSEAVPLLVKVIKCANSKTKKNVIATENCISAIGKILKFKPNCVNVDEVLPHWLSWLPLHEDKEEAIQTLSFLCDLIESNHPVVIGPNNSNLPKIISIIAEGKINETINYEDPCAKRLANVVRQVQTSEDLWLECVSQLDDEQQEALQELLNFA
How it was run: as §1

[3] = target: CDK5RAP2 (human, UniProt Q96SN8 1-1893, limits assumed)
How it was run: as §1

[4] = target: T2, PPFIBP1 (human, UniProt Q86W92 1-1011, limits assumed)
T2 sequence (looked up): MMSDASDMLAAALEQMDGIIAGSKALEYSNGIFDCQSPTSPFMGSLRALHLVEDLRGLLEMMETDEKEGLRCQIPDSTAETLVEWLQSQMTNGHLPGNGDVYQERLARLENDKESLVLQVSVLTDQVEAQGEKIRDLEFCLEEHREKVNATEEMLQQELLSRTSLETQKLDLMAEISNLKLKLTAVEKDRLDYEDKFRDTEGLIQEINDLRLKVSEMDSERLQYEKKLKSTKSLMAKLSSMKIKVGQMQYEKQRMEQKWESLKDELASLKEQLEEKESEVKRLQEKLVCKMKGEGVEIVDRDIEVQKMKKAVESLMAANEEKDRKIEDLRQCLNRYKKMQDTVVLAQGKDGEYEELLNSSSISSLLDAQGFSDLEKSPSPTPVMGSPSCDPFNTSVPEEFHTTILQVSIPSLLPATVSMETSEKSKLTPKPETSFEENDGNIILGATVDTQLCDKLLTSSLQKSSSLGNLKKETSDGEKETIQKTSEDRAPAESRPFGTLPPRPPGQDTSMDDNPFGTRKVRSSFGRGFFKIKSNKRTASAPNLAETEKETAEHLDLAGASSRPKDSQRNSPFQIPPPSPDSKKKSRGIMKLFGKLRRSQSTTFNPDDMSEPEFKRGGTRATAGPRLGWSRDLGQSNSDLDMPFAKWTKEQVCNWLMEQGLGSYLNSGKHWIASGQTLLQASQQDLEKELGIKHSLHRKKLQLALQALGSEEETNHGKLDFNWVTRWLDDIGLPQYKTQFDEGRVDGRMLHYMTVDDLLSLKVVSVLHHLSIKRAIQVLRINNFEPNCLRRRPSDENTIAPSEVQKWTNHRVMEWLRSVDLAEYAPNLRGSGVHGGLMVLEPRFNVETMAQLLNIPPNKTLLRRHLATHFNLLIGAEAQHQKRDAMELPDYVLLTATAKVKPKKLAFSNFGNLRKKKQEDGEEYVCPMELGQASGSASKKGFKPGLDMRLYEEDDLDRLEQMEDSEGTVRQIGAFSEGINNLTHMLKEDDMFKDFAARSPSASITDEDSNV
How it was run: as §1

Measured: binding result

CDK5RAP2, sequence (Q96SN8 whole entry): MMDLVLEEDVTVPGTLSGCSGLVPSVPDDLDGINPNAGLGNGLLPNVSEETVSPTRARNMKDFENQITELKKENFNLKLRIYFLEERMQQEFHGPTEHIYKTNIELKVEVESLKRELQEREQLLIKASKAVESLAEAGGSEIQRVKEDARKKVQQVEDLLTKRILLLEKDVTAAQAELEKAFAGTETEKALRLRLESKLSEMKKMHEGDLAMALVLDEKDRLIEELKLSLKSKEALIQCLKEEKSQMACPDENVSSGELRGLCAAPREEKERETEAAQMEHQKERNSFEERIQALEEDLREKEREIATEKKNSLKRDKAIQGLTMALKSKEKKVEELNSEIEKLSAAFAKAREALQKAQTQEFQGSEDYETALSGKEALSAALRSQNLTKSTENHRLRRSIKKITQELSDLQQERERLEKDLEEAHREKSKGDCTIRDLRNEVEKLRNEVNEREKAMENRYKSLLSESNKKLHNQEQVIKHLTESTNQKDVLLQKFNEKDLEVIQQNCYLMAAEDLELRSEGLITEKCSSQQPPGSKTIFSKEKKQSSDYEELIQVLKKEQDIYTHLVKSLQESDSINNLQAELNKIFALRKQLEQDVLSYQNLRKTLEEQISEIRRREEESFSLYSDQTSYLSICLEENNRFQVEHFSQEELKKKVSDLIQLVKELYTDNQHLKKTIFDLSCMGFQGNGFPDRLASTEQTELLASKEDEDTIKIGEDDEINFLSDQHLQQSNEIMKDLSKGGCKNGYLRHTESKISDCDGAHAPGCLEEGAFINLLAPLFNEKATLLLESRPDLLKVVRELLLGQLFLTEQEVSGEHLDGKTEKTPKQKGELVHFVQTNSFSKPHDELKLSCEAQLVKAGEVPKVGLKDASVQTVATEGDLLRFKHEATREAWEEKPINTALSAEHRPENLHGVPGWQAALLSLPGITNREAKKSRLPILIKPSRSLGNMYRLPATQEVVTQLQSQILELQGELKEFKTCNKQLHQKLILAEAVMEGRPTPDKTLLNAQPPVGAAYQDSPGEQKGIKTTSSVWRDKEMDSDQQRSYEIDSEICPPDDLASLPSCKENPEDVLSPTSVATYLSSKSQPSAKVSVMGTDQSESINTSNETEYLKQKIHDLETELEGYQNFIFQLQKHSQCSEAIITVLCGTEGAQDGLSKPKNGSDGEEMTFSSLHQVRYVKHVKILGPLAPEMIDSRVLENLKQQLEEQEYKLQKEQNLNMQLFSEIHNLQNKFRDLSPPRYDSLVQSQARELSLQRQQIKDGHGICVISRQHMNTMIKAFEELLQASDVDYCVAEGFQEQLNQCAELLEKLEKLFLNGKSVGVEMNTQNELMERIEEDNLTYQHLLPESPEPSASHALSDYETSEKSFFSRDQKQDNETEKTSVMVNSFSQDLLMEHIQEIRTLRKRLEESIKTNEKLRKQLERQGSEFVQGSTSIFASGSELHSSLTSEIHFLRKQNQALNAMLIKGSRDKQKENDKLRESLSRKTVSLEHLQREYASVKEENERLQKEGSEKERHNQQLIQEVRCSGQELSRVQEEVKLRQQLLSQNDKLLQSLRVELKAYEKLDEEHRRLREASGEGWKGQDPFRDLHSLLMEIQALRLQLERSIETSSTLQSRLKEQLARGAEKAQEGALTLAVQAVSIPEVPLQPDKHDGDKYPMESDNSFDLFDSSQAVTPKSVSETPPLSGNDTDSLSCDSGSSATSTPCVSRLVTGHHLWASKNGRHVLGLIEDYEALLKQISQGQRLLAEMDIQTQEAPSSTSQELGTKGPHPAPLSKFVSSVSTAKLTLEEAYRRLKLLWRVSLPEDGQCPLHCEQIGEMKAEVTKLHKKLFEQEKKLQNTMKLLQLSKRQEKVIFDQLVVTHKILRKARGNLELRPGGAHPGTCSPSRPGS
SKIV2L, sequence (Q15477 whole entry, the tested form may be a part): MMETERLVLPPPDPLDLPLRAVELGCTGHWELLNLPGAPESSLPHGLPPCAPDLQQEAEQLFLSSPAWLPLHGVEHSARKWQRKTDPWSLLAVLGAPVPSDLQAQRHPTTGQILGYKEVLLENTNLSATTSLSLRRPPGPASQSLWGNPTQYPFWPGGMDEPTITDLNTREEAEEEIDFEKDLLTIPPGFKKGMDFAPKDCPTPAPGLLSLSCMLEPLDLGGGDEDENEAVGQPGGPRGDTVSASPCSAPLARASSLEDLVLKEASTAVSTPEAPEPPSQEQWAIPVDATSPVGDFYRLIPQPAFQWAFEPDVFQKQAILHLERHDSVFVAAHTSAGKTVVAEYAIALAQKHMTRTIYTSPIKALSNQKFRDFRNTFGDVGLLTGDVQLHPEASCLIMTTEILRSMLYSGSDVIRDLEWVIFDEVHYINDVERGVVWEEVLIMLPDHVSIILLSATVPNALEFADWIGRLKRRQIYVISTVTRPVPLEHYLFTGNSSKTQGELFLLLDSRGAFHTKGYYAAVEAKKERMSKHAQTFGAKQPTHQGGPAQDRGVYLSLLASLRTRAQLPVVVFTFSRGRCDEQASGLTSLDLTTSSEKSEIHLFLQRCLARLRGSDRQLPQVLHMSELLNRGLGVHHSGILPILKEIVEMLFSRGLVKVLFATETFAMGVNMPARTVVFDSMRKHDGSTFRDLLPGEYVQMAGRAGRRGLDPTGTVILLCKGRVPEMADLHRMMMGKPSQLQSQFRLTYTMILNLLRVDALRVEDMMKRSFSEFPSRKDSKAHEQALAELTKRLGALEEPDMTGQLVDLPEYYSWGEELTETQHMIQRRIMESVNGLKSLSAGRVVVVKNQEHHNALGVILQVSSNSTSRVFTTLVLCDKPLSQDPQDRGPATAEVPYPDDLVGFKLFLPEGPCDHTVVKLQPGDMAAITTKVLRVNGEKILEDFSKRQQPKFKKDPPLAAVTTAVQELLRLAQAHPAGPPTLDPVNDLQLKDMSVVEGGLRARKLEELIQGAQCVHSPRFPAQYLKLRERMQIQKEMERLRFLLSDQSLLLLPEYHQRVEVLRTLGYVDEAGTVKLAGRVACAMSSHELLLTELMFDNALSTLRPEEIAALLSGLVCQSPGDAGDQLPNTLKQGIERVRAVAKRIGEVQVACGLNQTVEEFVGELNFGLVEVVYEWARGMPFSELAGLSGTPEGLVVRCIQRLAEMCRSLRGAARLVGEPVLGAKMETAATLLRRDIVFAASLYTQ

B1: LZTR1 R810W-FLAG (other, human, UniProt Q8N653 1-840, looked up)
chain: MAGPGSTGGQIGAAALAGGARSKVAPSVDFDHSCSDSVEYLTLNFGPFETVHRWRRLPPCDEFVGARRSKHTVVAYKDAIYVFGGDNGKTMLNDLLRFDVKDCSWCRAFTTGTPPAPRYHHSAVVYGSSMFVFGGYTGDIYSNSNLKNKNDLFEYKFATGQWTEWKIEGRLPVARSAHGATVYSDKLWIFAGYDGNARLNDMWTIGLQDRELTCWEEVAQSGEIPPSCCNFPVAVCRDKMFVFSGQSGAKITNNLFQFEFKDKTWTRIPTEHLLRGSPPPPQRRYGHTMVAFDRHLYVFGGAADNTLPNELHCYDVDFQTWEVVQPSSDSEVGGAEVPERACASEEVPTLTYEERVGFKKSRDVFGLDFGTTSAKQPTQPASELPSGRLFHAAAVISDAMYIFGGTVDNNIRSGEMYRFQFSCYPKCTLHEDYGRLWESRQFCDVEFVLGEKEECVQGHVAIVTARSRWLRRKITQARERLAQKLEQEAAPVPREAPGVAAGGARPPLLHVAIREAEARPFEVLMQFLYTDKIKYPRKGHVEDVLLIMDVYKLALSFQLCRLEQLCRQYIEASVDLQNVLVVCESAARLQLSQLKEHCLNFVVKESHFNQVIMMKEFERLSSPLIVEIVRRKQQPPPRTPLDQPVDIGTSLIQDMKAYLEGAGAEFCDITLLLDGHPRPAHKAILAARSSYFEAMFRSFMPEDGQVNISIGEMVPSRQAFESMLRYIYYGEVNMPPEDSLYLFAAPYYYGFYNNRLQAYCKQNLEMNVTVQNVLQILEAADKTQALDMKRHCLHIIVHQFTKVSKLPTLWSLSQQLLLDIIDSLASHISDKQCAELGADI
notes: Stably expressed in U87 cells by lentivirus; also called LZTR1-FLAG-R810W; LZTR1 RW; not shown: FLAG tag
binds: all assays above
